B1: SH3 and PX domain-containing protein 2B, residues 155 to 209; numbered along this chain, A1X283 (parent)
chain: EQYVVVANYQKQESSEISLSVGQVVDIIEKNESGWWFVSTAEEQGWVPATCLEGQ

± gives the uncertainty stated by the source.

In this series the parent is B1. As to the kind of experiment: abundance fitness (aPCA) (normalised: wild type 0, dead -1); higher = more abundant; growth selection in yeast, the domain comes from the species named. The settings on record: Homo sapiens.
EQYVVVKNYQKQESSEISLSVGQVVDIIEKNESGWWFVSTAEEQGWVPATCLEGQ: the abundance fitness is -0.024 ± 0.12. As to EQYVVVSNYQKQESSEISLSVGQVVDIIEKNESGWWFVSTAEEQGWVPATCLEGQ, the abundance fitness is -0.052 ± 0.083. To EQYVVVINYQKQESSEISLSVGQVVDIIEKNESGWWFVSTAEEQGWVPATCLEGQ belongs -0.32 ± 0.12; to EQYVVVDNYQKQESSEISLSVGQVVDIIEKNESGWWFVSTAEEQGWVPATCLEGQ, -0.046 ± 0.14; to EQYVVVGNYQKQESSEISLSVGQVVDIIEKNESGWWFVSTAEEQGWVPATCLEGQ, -0.098 ± 0.058. To EQYVVVNNYQKQESSEISLSVGQVVDIIEKNESGWWFVSTAEEQGWVPATCLEGQ belongs -0.09 ± 0.15; to EQYVVVLNYQKQESSEISLSVGQVVDIIEKNESGWWFVSTAEEQGWVPATCLEGQ, -0.101 ± 0.081; to EQYVVVRNYQKQESSEISLSVGQVVDIIEKNESGWWFVSTAEEQGWVPATCLEGQ, -0.066 ± 0.075. To EQYVVVENYQKQESSEISLSVGQVVDIIEKNESGWWFVSTAEEQGWVPATCLEGQ belongs -0.088 ± 0.1; to EQYVVVHNYQKQESSEISLSVGQVVDIIEKNESGWWFVSTAEEQGWVPATCLEGQ, -0.394 ± 0.2; to EQYVVVCNYQKQESSEISLSVGQVVDIIEKNESGWWFVSTAEEQGWVPATCLEGQ, -0.25 ± 0.093. EQYVVVFNYQKQESSEISLSVGQVVDIIEKNESGWWFVSTAEEQGWVPATCLEGQ: the abundance fitness was -0.076 ± 0.17.

With EQYVVVWNYQKQESSEISLSVGQVVDIIEKNESGWWFVSTAEEQGWVPATCLEGQ, the abundance fitness was -0.286 ± 0.11.

Take EQYVVVQNYQKQESSEISLSVGQVVDIIEKNESGWWFVSTAEEQGWVPATCLEGQ: the abundance fitness was -0.106 ± 0.11.

Turning to EQYVVVMNYQKQESSEISLSVGQVVDIIEKNESGWWFVSTAEEQGWVPATCLEGQ, the abundance fitness was -0.15 ± 0.12.

As to EQYVVVYNYQKQESSEISLSVGQVVDIIEKNESGWWFVSTAEEQGWVPATCLEGQ, the abundance fitness was 0.025 ± 0.12.

On to EQYVVVAQYQKQESSEISLSVGQVVDIIEKNESGWWFVSTAEEQGWVPATCLEGQ, for which the abundance fitness was -0.105 ± 0.14.

Turning to EQYVVVALYQKQESSEISLSVGQVVDIIEKNESGWWFVSTAEEQGWVPATCLEGQ, the abundance fitness was -0.447 ± 0.075.

Turning to EQYVVVAAYQKQESSEISLSVGQVVDIIEKNESGWWFVSTAEEQGWVPATCLEGQ, the abundance fitness was determined as 0.093 ± 0.081. In the case of EQYVVVAEYQKQESSEISLSVGQVVDIIEKNESGWWFVSTAEEQGWVPATCLEGQ it was -0.068 ± 0.092. To EQYVVVAGYQKQESSEISLSVGQVVDIIEKNESGWWFVSTAEEQGWVPATCLEGQ belongs 0.012 ± 0.054; to EQYVVVAPYQKQESSEISLSVGQVVDIIEKNESGWWFVSTAEEQGWVPATCLEGQ, -0.069 ± 0.15; to EQYVVVAFYQKQESSEISLSVGQVVDIIEKNESGWWFVSTAEEQGWVPATCLEGQ, -0.26 ± 0.12. In the case of EQYVVVAIYQKQESSEISLSVGQVVDIIEKNESGWWFVSTAEEQGWVPATCLEGQ it was -0.501 ± 0.18; in that of EQYVVVAKYQKQESSEISLSVGQVVDIIEKNESGWWFVSTAEEQGWVPATCLEGQ, -0.083 ± 0.17; in that of EQYVVVAMYQKQESSEISLSVGQVVDIIEKNESGWWFVSTAEEQGWVPATCLEGQ, -0.305 ± 0.11. As for EQYVVVAHYQKQESSEISLSVGQVVDIIEKNESGWWFVSTAEEQGWVPATCLEGQ, the abundance fitness is -0.102 ± 0.13. To EQYVVVADYQKQESSEISLSVGQVVDIIEKNESGWWFVSTAEEQGWVPATCLEGQ belongs 0.04 ± 0.11; to EQYVRVANYQKQESSEISLSVGQVVDIIEKNESGWWFVSTAEEQGWVPATCLEGQ, -1.04 ± 0.12; to EQYVQVANYQKQESSEISLSVGQVVDIIEKNESGWWFVSTAEEQGWVPATCLEGQ, -0.994 ± 0.24. In the case of EQYVSVANYQKQESSEISLSVGQVVDIIEKNESGWWFVSTAEEQGWVPATCLEGQ it was -0.099 ± 0.076. To EQYVTVANYQKQESSEISLSVGQVVDIIEKNESGWWFVSTAEEQGWVPATCLEGQ belongs -0.309 ± 0.34; to EQYVPVANYQKQESSEISLSVGQVVDIIEKNESGWWFVSTAEEQGWVPATCLEGQ, -0.892 ± 0.15.

Consider EQYVWVANYQKQESSEISLSVGQVVDIIEKNESGWWFVSTAEEQGWVPATCLEGQ, for which the abundance fitness is -0.938 ± 0.16. In the case of EQYVVNANYQKQESSEISLSVGQVVDIIEKNESGWWFVSTAEEQGWVPATCLEGQ it was -0.214 ± 0.25; in that of EQYVVAANYQKQESSEISLSVGQVVDIIEKNESGWWFVSTAEEQGWVPATCLEGQ, 0.049 ± 0.087; in that of EQYVVLANYQKQESSEISLSVGQVVDIIEKNESGWWFVSTAEEQGWVPATCLEGQ, -0.199 ± 0.11.

Turning to EQYVVQANYQKQESSEISLSVGQVVDIIEKNESGWWFVSTAEEQGWVPATCLEGQ, the abundance fitness is -0.199 ± 0.14. To EQYVVIANYQKQESSEISLSVGQVVDIIEKNESGWWFVSTAEEQGWVPATCLEGQ belongs 0.054 ± 0.14. Regarding EQYVVPANYQKQESSEISLSVGQVVDIIEKNESGWWFVSTAEEQGWVPATCLEGQ, the abundance fitness is -0.529 ± 0.16. In the case of EQYVVSANYQKQESSEISLSVGQVVDIIEKNESGWWFVSTAEEQGWVPATCLEGQ it was -0.087 ± 0.11; in that of EQYVVYANYQKQESSEISLSVGQVVDIIEKNESGWWFVSTAEEQGWVPATCLEGQ, -0.262 ± 0.17.

With EQYVVFANYQKQESSEISLSVGQVVDIIEKNESGWWFVSTAEEQGWVPATCLEGQ, the abundance fitness is -0.131 ± 0.21. EQYVVEANYQKQESSEISLSVGQVVDIIEKNESGWWFVSTAEEQGWVPATCLEGQ: the abundance fitness is -0.366 ± 0.11. In the case of EQYVVGANYQKQESSEISLSVGQVVDIIEKNESGWWFVSTAEEQGWVPATCLEGQ it was -0.151 ± 0.061.

Consider EQYVVKANYQKQESSEISLSVGQVVDIIEKNESGWWFVSTAEEQGWVPATCLEGQ, for which the abundance fitness stood at 0.056 ± 0.15.

Turning to EQYVVCANYQKQESSEISLSVGQVVDIIEKNESGWWFVSTAEEQGWVPATCLEGQ, the abundance fitness is -0.151 ± 0.15. In the case of EQYVVWANYQKQESSEISLSVGQVVDIIEKNESGWWFVSTAEEQGWVPATCLEGQ it was -0.326 ± 0.1.

Values taken from the Human Domainome abundance scans (Beltran et al. 2025).
